Test results published in US20240294613A1 (BROAD INSTITUTE, published 2024).

How the values were obtained:
[1] = molecular target: SARS-COV-2 full-length S (containing G at position 614) (SARS-COV-2, UniProt P0DTC2 14-1273); assay: cell-based or functional assay
[2] = molecular target: SARS-COV-2 full-length S (containing G at position 614) (SARS-COV-2, UniProt P0DTC2 14-1273); assay: cell-based or functional assay; remark: listed apart in the source

Binder | PV IC50 [1] | IC50, SARS-COV-2 pseudovirus neutralization [2] | molar neutralization ratio (MNR) [2]
BG7-18 (antibody, V domains shown) VH: EVQLMESGGGLIQPGGSLRLSCAASGFIVSSNYMSWVRQAPGKGLEWVSVIYSGGGTDYADSVKGRFTISRDNSKNTLFLQMNSLRAEDTAVYYCARGAAMVKELFDYWGQGTQVTVSS VL: not shown | 0.083 µg/mL | – | –
BG1-15 dimeric IgA (antibody, V domains shown) VH: DVQLVESGGVVVQPGGSLRLACAASGFTFDDYAMHWVRQAPGKGLEWVSLITRDGGSTHYADSVKGRFTISRDNSKNSLYLQMNSLRLEDTAFYYCAKDGRRDGYNHALDNWGQGTLVTVSS VL: DIQMTQSPSTLSASVGDRVTITCRASQSISSWLAWYQQKPGKAPKLLINRASSLESGVPSRFSGSGSGTEFTLTISSLQPDDFATYYCQQYSSYPTFGQGTKVEIKR | – | 6.5 µg/mL | –
BG10-8 dimeric IgA (antibody, V domains shown) VH: QMELVESGGGLVKPGGSLRLSCASSGFSLGDYYMTWIRQAPGKGLEWVSYISRSDGKTFYADSVKGRFTLSTDDGKKSLYLQMNSLRAEDTAVYYCVRGEGGPHDAFDIWGQGTMVTVSS VL: TSYVLTQPPSVSVAPGQTARISCGGNNIESKTVHWYQQKPGQAPILVVYDDNDRPSGIPERFSGSNSGNTATLSISRAEAGDEADYYCQVWDSSRDLRVFGGGTKLSVLG | – | 0.026 µg/mL | 10.9
BG7-15 (antibody, V domains shown) VH: QVQLVQSGAEVKKPGASVKVSCKASGYTFTSYAISWVRQAPGQGLEWMGWVSAYNGNTNYAQKLQGRVTMTTDTSTNTAYMELRSLRSDDTAIYYCAIPYSSVTFDCWGQGTLVTVSS VL: EIVLTQSPGTLSLSPGERATLSCRASQSVSGTFLAWYQQKPGQAPRLLISGASSRATGIPDRFSGSGSGTDFTLTISRLEPEDFAVYYCQQYGSSRPTFGQGTKLEIKR | 0.016 µg/mL | – | –
